From patent US20210238279A1 (Johns Hopkins, published 2021)

How the values were obtained:
[1] = biological target: T1, human ZnT8 over-expressed in HEK293 cells (human, UniProt Q8IWU4 1-369); assay: flow cytometry of fixed and permeabilized HEK293 cells, mean fluorescence against antibody concentration
T1 construct: whole, on cells; Cells were fixed and permeabilized for immunofluorescence and flow cytometry (intracellular staining); The same id is used for the detergent lysates of over-expressing cells in the HTRF assay; also called ZnT8(+) HEK293 cells; HEK293 cells stably expressing human ZnT8
T1 sequence (looked up): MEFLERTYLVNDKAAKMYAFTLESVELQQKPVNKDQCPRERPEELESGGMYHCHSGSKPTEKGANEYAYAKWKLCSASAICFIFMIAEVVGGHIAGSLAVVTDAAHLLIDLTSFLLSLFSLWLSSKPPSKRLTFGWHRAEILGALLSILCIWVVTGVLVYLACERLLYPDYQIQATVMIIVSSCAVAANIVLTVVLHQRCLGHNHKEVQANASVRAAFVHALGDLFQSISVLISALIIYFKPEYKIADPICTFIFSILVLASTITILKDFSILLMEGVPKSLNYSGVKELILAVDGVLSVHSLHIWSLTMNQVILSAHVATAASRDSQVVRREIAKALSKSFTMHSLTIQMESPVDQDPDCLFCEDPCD
From the text: (§1) FIG. 6A-6C. mAb binding affinity. (FIG. 6A) Representative confocal microscopy images of immunofluorescence staining of fixed and saponin-permeabilized HEK293 cells with mAb20 or mAb39 staining as indicated. ZnT8(+) or ZnT8(−) denotes HEK293 cells w/o ZnT8 over-expression. Red: mAb20 or mAb39 staining, blue: DAPI, scale bar: 5 um. (FIG. 6B) Histograms of flow cytometry counting events. Arrows indicate leftward shifts of the histogram as a result of mAb serial dilutions. (FIG. 6C) mAb binding to HEK293 cells w/o ZnT8 overexpression as indicated. Immunofluorescence intensities of mAb20 or mAb39 labeling in serial dilutions were obtained from (FIG. 6B). Solid lines are least-squares fits of the binding data to a one-component binding process.
(§2) Flow cytometry analysis. HEK293 cells w/o ZnT8 over-expression were fixed, permeabilized, and resuspended in PBS plus 5% BSA at a density of 1×10⁶/ml as described previously (43). Aliquots of 100 μl cell suspension were stained with mAb20 or mAb39 in 3-fold serial dilutions for 2 hours at RT, and then stained with Alexa fluor 647-conjugated donkey-anti-mouse secondary antibody in 1:1000 dilution with 5% BSA (Thermo Fisher Scientific, cat. #A31571). The labeled cells were analyzed immediately by flow cytometry. […]
(§3) Binding affinity. […] No mAb staining was detected in parental HEK293 cells without ZnT8 over-expression. […]

[2] = biological target: T1, human ZnT8 over-expressed in HEK293 …; assay: flow cytometry, serial mAb dilutions on fixed, permeabilized HEK293 cells stably expressing human ZnT8; one-component fit
From the text: as §1, §2, §3

mouse ZnT8-His = biological target: T2, mouse ZnT8-His (mouse, UniProt Q8BGG0 1-367, limits assumed); assay: ELISA titration on mouse ZnT8-His immobilized on Ni-NTA plate; apparent binding affinity, one-component fit; DDM-solubilized mouse ZnT8 immobilized to Ni-NTA plate via His-tag; mAb titration
T2 construct: Over-expressed in HEK293 cells, solubilized with DDM and immobilized on Ni-NTA plates, or SDS-denatured on immunoblots; not shown: C-terminal poly-histidine tag
T2 sequence (looked up): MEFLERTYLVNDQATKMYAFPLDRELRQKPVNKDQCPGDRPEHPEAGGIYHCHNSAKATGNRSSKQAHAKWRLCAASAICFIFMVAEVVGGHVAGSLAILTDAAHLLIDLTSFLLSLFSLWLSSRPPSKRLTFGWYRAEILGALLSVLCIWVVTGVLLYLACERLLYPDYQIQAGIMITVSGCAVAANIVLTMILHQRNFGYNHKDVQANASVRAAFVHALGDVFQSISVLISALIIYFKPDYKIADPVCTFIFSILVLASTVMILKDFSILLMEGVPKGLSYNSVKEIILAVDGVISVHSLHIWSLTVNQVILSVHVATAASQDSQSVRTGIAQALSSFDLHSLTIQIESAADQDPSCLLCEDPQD
From the text: FIG. 7A-7D. mAb binding specificities (FIG. 7A) mAb binding to ZnT8-His immobilized to Ni-NTA plate. Bound mAb20 (red) or mAb39 (magenta) was detected by an HRP-conjugated secondary antibody. Solid lines are least-squares fits of binding datapoints to a one-component binding process. Error bars are standard errors (n=8). (FIG. 7B) SDS-denatured mouse ZnT8-His (labeled as M) and human ZnT8-His (labeled as H) on immunoblots were detected by mAb20 or mAb39 as indicated. […] (FIG. 7C) Detection of endogenous human ZnT8 in EndoC-βH cells by mAb20 or […] immunoblotting. An equal amount of EndoC-βH lysate (5 μg total protein) was loaded to each lane. (FIG. 7D) Immunoblotting of HEK lysates with or with over-expression of a ZnT homolog as indicated. An approximately equal amount of total lysate protein (5 μg) was located to each lane, probed by either mAb20, mAb39, or anti-FALG antibody as indicated. FIG. 8. HTRF response to human ZnT8, mouse ZnT8 and human ZnT3.
Binding specificities. […] Of note, the epitope-masking effect of ZnT8 immobilization weakened the apparent binding affinities of both mAbs as compared to the affinities determined by flow-cytometry, and such a weakening effect was more pronounced for mAb39, probably due to a closer proximity of the mAb39 epitope to the C-terminal His-tag. Next, we compared the immunoreactivities of mAbs to denatured ZnT8.

B1: mAb20 (antibody, V domains shown)
VH: QIQLVQSGPELKKPGETVKISCKASGYIFTNYPMHWVKQAPGKGLKWMGWINTYSGVPTHADDFKGRFAFSLETSANSAFLQINNLKNEDTATYFCTRSRITPTGGYAMDYWGQGTSVTVSS
VL: DVVMTQTPLSLPVSLGDQASISCRSSQSLVHSNGNTYLHWYLQKPGQSPNLLISKVSNRFSGVPERFSGSGSGTDFTLKISRVEAEDLGVYFCSQNTHVPWTFGGGTKLEIKR
notes: Mouse hybridoma mAb purified on protein A/G; In some assays it was labelled with Alexa Fluor 488 or terbium cryptate; also called monoclonal antibody mAb20; anti-ZnT8 mAb20
EC50 (read off the curve) [1]: ~0.1 µg/mL
Kd [2]: 0.8 nM
Kd (mouse ZnT8-His): 1420 nM

B2: mAb39 (antibody, V domains shown)
VH: QVQLQQPGAELVKPGASVKLSCKASGYSFTTYWMHWVKQRPGQGLEWVGDINPRNGRTNYNEKSKSKATLTVDISSSTVYMQVSSLTSEDSAVYYCAIWSGAMDYWGPGTSVTVSS
VL: DVVMTQTPLSLPVSLGDQPSISCKSSQSLVHNNGNTYLHWYLQKPGQSPKLLIYKVSNRFSGVPDRFSGSGSGTDFTLKISRVEAEDLGVYFCSQTTHVPPTFGGGTKLEIKR
notes: Mouse hybridoma mAb purified on protein A/G; In some assays it was labelled with Alexa Fluor 555 or d2; also called monoclonal antibody mAb39; anti-ZnT8 mAb39
EC50 (read off the curve) [1]: ~0.1 µg/mL
Kd [2]: 0.7 nM
Kd (mouse ZnT8-His): 35.8 nM
